Data published in patent publication US7361485.

Experiments:
[1] = target: T1, modified pro-caspase-7 with an aggrecanase activation sequence, P55210
T1 chain: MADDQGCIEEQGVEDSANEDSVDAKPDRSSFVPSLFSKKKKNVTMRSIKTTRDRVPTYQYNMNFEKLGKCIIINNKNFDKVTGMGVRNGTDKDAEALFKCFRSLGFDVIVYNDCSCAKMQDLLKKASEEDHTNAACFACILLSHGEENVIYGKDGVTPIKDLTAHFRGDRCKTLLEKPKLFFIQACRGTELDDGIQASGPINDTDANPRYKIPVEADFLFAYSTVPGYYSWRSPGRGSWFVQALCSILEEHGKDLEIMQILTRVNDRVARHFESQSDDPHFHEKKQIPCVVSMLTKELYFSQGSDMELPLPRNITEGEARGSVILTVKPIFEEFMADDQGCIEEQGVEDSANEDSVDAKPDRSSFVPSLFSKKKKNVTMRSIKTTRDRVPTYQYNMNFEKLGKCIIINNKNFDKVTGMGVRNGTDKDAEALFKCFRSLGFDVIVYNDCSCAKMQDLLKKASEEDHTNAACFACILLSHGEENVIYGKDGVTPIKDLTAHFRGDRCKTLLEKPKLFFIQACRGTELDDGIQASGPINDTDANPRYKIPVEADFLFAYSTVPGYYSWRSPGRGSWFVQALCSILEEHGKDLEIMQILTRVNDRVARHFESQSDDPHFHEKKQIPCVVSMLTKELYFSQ

[2] = target: T2, modified pro-caspase-3 with an aggrecanase recognition sequence, P42574
T2 chain: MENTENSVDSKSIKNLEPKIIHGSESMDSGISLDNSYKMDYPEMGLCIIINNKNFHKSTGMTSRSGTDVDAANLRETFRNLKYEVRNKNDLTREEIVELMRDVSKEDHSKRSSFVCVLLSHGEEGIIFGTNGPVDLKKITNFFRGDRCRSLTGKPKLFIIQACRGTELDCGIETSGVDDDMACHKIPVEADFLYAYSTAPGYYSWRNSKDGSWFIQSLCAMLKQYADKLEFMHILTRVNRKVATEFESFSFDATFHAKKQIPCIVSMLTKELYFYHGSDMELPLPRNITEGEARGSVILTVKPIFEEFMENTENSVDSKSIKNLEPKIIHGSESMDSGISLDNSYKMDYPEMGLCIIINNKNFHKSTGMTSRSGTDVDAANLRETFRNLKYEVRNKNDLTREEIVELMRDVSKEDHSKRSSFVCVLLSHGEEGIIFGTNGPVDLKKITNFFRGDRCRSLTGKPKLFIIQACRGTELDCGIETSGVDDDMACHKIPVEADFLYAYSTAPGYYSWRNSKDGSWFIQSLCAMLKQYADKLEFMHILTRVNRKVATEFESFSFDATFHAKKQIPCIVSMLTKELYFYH

B1: aggrecanase (ADAMTS-4) (protein)
chain: FASLSRFVETLVVADDKMAAFHGAGLKRYLLTVMAAAAKAFKHPSIRNPVSLVVTRLVILGSGEEGPQVGPSAAQTLRSFCAWQRGLNTPEDSDPDHFDTAILFTRQDLCGVSTCDTLGMADVGTVCDPARSCAIVEDDGLQSAFTAAHELGHVFNMLHDNSKPCISLNGPLSTSRHVMAPVMAHVDPEEPWSPCSARFITDFLDNGYGHCLLDKPEAPLHLPVTFPGKDYDADRQCQLTFGPDSRHCPQLPPPCAALWCSGHLNGHAMCQTKHSPWADGTPCGPAQACMGGRCLHMDQLQDFNIPQAGGWGPWGPWGDCSRTCGGGVQFSSRDCTRPVPRNGGKYCEGRRTRFRSCNTEDCPTGSALTFREEQCAAYNHRTDLFKSFPGPMDWVPRYTGVAPQDQCKLTCQAQALGYYYVLEPRVVDGTPCSPDSSSVCVQGRCIHAGCDRIIGSKKKFDKCMVCGGDGSGCSKQSGSFRKFRYGYNNVVTIPAGATHILVRQQGNPGHRSIYLALKLPDGSYALNGEYTLMPSPTDVVLPGAVSLRYSGATAASETLSGHGPLAQPLTLQVLVAGNPQDTRLRYSFFVPRPTPSTPRPTPQDWLHRRAQILEILRRRPWAGRK
- caspase activity (DEVD-pNA, A405) [1]: Upon incubation of the various pro-caspase variants with their respective target enzymes a clear increase in caspase activity was observed.
- caspase activity (DEVD-pNA, A405) [2]: Upon incubation of the various pro-caspase variants with their respective target enzymes a clear increase in caspase activity was observed.
